Results from the domain aggregation screens of Martell et al. (2025).

Test: soluble fraction after stress (log2 fold change); higher = more stays soluble; pooled small domains, quantitative proteomics
Settings: stress: 75 degC
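Also: 20 min heating vs room temperature control held 20 min.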

| Sequence | soluble fraction (log2) |
| --- | --- |
| HMAAEGARNNSLFNSLRERALEVSSHNELEQIAFKMNETNIPPLRASEVISVVNSVWKNRISNQIIP | 0.266 |
| HMAAFGDLLSELRRDMNMTQDELAKVLFVSPGTISNYENNIHFPDVPKLKQIAQYFGVTTDYLLG | -0.519 |
| HMAAINTYQVRKIYAIAGALGMKSRDGDDALHDLVFGMTGKQHISGLTSAEAYDVIAELEKKQ | -1.6 |
| HMAALKVAVLTVSDTRTQETDTSGAFLEGALREAGHEIADRQIVIDDVYQLRAIVSQWIADPEVEVILT | -0.121 |
| HMAALTADEAKQIALKHAGVAESDVQRLKVEQDRDDGRLLYEVEWDVGRTEYSYEIDANTGDILNYEKDV | -0.000944 |
| HMAANKIDEDRNTELLQVIQNKFPDADAATKKSVKEIMKEHDIPNFKNADDIPTAVLEQIVKVLNQ | -0.378 |
| HMAAPLTDRETEVLTLLARGLINKQIAEELHIGLTTVITHRRNIMEKLRVRSLAELILRAVAAGYVDAGR | -1.79 |
| HMAARKDLIAGEDAEGRLDAWLAAALDGEFSRNRVKALIEQGAVAINDVAVTEPKRKIRPGDRLSIVLPEP | 0.325 |
| HMAARLMRALIPYAQGGLLAKLHEDGQVLSEEYTGEGIEVKALADEQLFGRLTVQLGEQAVSWQD | -0.163 |
| HMAASTPGTVTGSVVNVRPDPSTNNDRIGVIYQGTKVEILAQVGEWYNIQFGPVSGWVHKDYISTGA | -0.421 |
| HMAATISPEIQAEAEKAAALGVESIKNFMASLKEKNPEQHALFSDSEKRRLYAIARKADLNTTQQG | 0.595 |
| HMAAVPQPQRSETIVYIGGRKFYVHTVQAGETLYSIARLYGVSEQTLVANNPTMADVVKADQNVRIPVPA | -1.96 |
| HMAAYRLIPLGNSNKDFETYQEAIQYMRDKLDESSKAFEEGKQNWVYSGRVYGVPWSDGRTTFTVDLVPKV | 0.594 |
| HMADASVTAYFKIAEDRLQGRLPDTFSEASLKARYQLTPAQLTAVLTRIAQEGWAERKPGYGWAFSSML | -1.62 |
| HMADEIMYPVQVNGKVRAEIFVAADQSKNKELVLEMAKSEERVQKYLEEGNLIKEIFVPGRIVNLVI | 0.162 |
| HMADEIQIGLQKAIQSLPEKQKLVFSMRYYDEIPYDEMSKILDMSVGTLKTNYHYAKQKIEDFLQNH | -1.22 |
| HMADFIGMNATVTERIFPQGFGRISFVYEGNSISEPARSEDGKEIPTGTSVVVLEVRDKVYIVQPL | -2.35 |
| HMADGDIIPEGQRDATLASLAGSMRARGMTEAEILAALQVTNETRVRPPMALADLERIARSIGRYEPGK | 0.0569 |
| HMADKGTITNQQEKILKALILFPEGASIEEIQKAADLGIDKRQFQRRLNTLIESGQINRTGKSRGTKYHTI | 0.201 |
| HMADLKVGFVHRAGSVLERELDDVLEALEMYRSALAIDPSHKPSLDALTRISQLADYREQAAEILEPLPR | -0.767 |
| HMADLNFHQQIRSLPPEQQEILLLRFGQELTLRQIAQVTGVPLRTVQSRLRAALKKLKSQLEKEE | -0.696 |
| HMADLPQATALADVKGDVQMQGIQFGYDPEKIIIHDLNLHARPGSLVAIVGPTGAGKTTIINLLMRFYD | -1.75 |
| HMADLVYLRKRLQDAIAQLPEDMRTAYTLFQIARRSIREIAELTGASESLVKVRIHRAKGKLQELLEDLR | -2.57 |
| HMADPAVLIAELFRAMPEKRFSVKNLISATGAETREQKDYVREVVHSLSREGMIEQVAEGKYRLSASE | 0.299 |
| HMADQVLVMTRAVGQGDIVRNADIGLTSVAVDRAVATIPASQLDKIVGRHALVDLSPGQLLGSHSVGE | 0.147 |
| HMADRDKYIIMGQQLLRAAFEHFGKKATDKALENAANKLRISDVPELYARLGSAELQPRDVINVIFPD | -0.308 |
| HMADRLITLSEVASLLRVSRHTVQAWISPSSPNHRPEFAIMARHAGRRTVFIEAEVTAWLDQRRG | -2.14 |
| HMADVSPEAQHKMVEAFAQFGVTKEHIEQRIQRRLDAIQPAQMVTLKRIFASLRDGMSTPAEWFE | -0.639 |

| Sequence | soluble fraction (log2) |
| --- | --- |
| HMADYSGYLGKKGKVIAPLRPAGTALIDGERVDVVSFGDYIDKDSEIEVVKIEGSKLLVKKY | 0.28 |
| HMAEAIVMSTAAPVKSSPDPQSKDIFVLHEGTKVAVGDSLGDWREIRIADGNKGWVLVSAIEMI | 0.0397 |
| HMAEDGNMTFEEYAKRWLARQVRYAPSTLESYRRMLGRVYPFIGAIPINRLRPIALENLLAELRKRT | -0.582 |
| HMAEEFESMTEARRLELARLVDSRGFVRVTDAAEELGVSDVTIRGDLSELERRGLLTRVHGGAMPVT | -0.00431 |
| HMAEKEYYYATDALNLRQGPGMEHTVKGEVVLGERVALLGLEGKWAKIQNAQGTTGYVFSAYLAPS | -0.196 |
| HMAEMLENQLKHAKSKQEANEYIAAAIGGVSDDDPDKEYLVAAYNEISKEFHHSSAYHRLPDT | 0.16 |
| HMAEMRYLDQIYEVNVPLPDLSLEDGDLLARWAVNFHQRYEELFSYRQSDQEIRLVTLRVTVLGELP | -0.65 |
| HMAENMNAALRVSSLINQIGTVNAKAKDRIESARKAYDALSEAQKAYVANLTTLETAETSLSKL | 0.0786 |
| HMAENTIPSVIGKTLSDATFLLESYGYERGGVSEEYSEMPKGVVIRQSPQAGSSADPGTKVNLVVSLGEEI | 0.538 |
| HMAENTKKWDETGRRYRSYIKLEKRLSENTVESYMRDYMQFAHFILRQWDVAPHKVEPQMVERYMAWLYER | -0.795 |
| HMAEPIAAGKYTVSTSGSVLNMRVSPDADSQVLEKIPNGTIVEVTKSVLGWAYVTYNSAQGWVSSAYLV | -1.62 |
| HMAEPLMTQIVEIEYADAEGLRENLEQFLTRLDEKTLLGSVLVDRHTNSLIIQAVRSDLERMLPLIETLDR | -0.804 |
| HMAEPLYKQVKNKIIQNLTSDEWKPGSVIPSETKLAETYGVGVSTIRMAIGELVAARILIRRQGKGTFVSS | -2.1 |
| HMAEQDILQSVYPHIGGQDNVSRTISRNGTLYLMLKDASAVDLKAVKQVPGIADAALERGRLTLQLEE | -0.203 |
| HMAEQLGNSRTANMVMLGAMIERTGVISIDSAMEALKATFGPKKEHLLPINRQAMEAGAAAARAV | 0.104 |
| HMAERVWASLLEIKNAVAIEDAKTLEDVDNSEKIAEERIAALNDDAKHPLAIAFIGKLRQDIAEKKIELA | 0.413 |
| HMAESSPYTVRPGDTLWKILAQTQNARYNDFPYLYRKFRELNPNITDLNHIVSGQKIIVPHIPG | -0.331 |
| HMAESTRSRILNAAIEMMETGGESSVRLSAIAEALGIKEPSIYHHFTNRTELVNAAYIEWYW | -1.07 |
| HMAEVDREEALRIALAHAAVARRDVRNLKIERGEENGVPVYKVEFETAFGDFDVAVSRRSGDVVDAD | -0.0382 |
| HMAEVIYGAGKTPAQMLGILRTMQAHGQKTVLITRLREEAAEEIGREIPLQYDKTAGVGIVGTLPQPDG | -0.102 |
| HMAEVPSLIGKSLDAAKQAIIDAGFKVGSVSYDNSDSYGKGQVMWQQYEPSTKVKKGSSISIKVSKGS | -0.00107 |
| HMAEVRTLLVPIELAGMRFDQVLAELLPEFSRSRLAAWIKSGDALLDGHDAKPKGVVRGGEQIEIRLA | -0.0127 |
| HMAFAVWVKLVAIGPNYAQLEIEQGTQRNVRTLRPGDDAPEGVRLLSLTPTHAEVQANGIARKLALGQGMA | -3.22 |
| HMAFDESLVRSIQELLSELGYSPGKIDGLLGAKTVAAIKAFELEINKDQLTGEPSEELLIALQLAIRSSKM | -1.81 |
| HMAFDGIVLKNITNALKELINGKINKIQQSSKDNLTLSIYNQKSYNLYIDISANNYRVNLTTHSE | 0.126 |
| HMAFDYETYQLTSREFSIIELVADGRSNREIAEALYLGEGTVRNYLSSILEKLELRDRTQLAVFFYQHL | -2.3 |
| HMAFIEIMTEGDADGRGFQYPIPTYSITRDFDWSETENNKLLFEMTAKYGTPYFSNYINSDMEPSDV | -1.13 |
